From publication PMC5640987 (Nature, 2017) come the findings set out here.

In one data set the target is Tor1 (budding yeast (endogenous), UniProt P35169 1-2470). As to the kind of experiment: cryo-EM structure.
The data set “cryo-EM structure” deals with the molecule itself. Put plainly: cryo-EM structure.

Sequence of Tor1 (P35169 whole entry): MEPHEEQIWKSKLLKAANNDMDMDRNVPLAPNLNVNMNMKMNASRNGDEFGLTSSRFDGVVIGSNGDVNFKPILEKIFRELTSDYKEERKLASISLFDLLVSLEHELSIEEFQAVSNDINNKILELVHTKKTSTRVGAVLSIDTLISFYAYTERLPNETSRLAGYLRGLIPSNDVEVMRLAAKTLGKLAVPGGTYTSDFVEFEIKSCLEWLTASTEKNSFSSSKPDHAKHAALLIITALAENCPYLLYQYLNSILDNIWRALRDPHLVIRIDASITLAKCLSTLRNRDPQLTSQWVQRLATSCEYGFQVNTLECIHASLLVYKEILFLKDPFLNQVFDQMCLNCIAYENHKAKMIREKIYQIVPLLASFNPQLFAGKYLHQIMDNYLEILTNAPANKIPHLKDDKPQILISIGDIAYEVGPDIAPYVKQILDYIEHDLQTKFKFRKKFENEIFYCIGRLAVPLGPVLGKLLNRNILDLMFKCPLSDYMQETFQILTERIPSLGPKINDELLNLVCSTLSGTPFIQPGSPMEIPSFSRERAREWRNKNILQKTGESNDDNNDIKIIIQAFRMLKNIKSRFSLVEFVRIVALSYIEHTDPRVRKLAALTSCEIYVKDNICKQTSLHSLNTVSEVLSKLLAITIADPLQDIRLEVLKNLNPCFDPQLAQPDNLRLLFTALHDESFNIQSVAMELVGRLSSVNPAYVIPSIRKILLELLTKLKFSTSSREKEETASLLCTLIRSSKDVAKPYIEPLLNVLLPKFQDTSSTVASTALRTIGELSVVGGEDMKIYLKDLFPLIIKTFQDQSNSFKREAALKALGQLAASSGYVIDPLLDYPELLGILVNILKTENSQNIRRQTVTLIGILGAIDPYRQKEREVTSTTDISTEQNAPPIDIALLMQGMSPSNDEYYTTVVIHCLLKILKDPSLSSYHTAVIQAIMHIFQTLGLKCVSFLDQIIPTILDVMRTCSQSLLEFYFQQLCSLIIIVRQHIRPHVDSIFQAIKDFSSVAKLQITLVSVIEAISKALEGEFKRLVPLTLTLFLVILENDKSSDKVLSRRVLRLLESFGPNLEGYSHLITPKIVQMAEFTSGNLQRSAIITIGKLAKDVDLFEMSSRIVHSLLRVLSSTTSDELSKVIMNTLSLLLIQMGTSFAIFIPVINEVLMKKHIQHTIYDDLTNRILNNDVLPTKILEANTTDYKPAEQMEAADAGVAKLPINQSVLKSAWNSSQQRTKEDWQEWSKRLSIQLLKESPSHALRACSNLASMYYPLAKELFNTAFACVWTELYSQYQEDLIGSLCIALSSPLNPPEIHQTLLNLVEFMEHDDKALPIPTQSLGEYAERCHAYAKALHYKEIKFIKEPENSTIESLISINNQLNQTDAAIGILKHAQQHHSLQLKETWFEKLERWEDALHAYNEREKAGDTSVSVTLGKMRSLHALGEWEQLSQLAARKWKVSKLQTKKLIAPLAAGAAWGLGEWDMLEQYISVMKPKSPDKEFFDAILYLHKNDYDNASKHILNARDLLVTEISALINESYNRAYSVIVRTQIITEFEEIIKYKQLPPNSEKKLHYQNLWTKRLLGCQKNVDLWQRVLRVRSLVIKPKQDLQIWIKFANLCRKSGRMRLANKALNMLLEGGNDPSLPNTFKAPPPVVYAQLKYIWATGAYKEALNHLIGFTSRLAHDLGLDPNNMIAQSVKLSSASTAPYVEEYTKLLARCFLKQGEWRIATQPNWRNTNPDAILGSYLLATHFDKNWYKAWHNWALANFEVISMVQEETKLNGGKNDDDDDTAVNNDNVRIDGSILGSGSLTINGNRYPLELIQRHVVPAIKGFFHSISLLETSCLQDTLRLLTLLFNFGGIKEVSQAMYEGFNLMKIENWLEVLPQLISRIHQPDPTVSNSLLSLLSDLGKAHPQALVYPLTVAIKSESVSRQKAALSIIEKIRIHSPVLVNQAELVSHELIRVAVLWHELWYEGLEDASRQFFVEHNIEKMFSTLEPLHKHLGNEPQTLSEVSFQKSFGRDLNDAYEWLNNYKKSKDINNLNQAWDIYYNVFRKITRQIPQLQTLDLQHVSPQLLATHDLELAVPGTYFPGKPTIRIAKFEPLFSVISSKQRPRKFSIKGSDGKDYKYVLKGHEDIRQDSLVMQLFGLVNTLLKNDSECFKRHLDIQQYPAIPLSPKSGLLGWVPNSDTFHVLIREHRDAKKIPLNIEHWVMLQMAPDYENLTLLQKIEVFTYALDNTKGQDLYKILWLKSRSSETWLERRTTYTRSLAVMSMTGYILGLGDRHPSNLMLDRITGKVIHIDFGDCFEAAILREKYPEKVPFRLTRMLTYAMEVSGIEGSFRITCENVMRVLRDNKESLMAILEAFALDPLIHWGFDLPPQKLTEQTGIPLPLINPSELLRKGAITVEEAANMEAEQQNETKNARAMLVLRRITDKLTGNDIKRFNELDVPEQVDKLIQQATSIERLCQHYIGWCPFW

B1: Kog1 in the purified TORC1 helix (natural protein)
chain: MPEIYGPQPLKPLNTVMRHGFEEQYQSDQLLQSLANDFIFYFDDKRHKTNGNPIPEEDKQRDVNRYYQPITDWKIMKDRQKTVSAALLLCLNLGVDPPDVMKTHPCARVEAWVDPLNFQDSKKAIEQIGKNLQAQYETLSLRTRYKQSLDPCVEDVKRFCNSLRRTSKEDRILFHYNGHGVPKPTKSGEIWVFNRGYTQYIPVSLYDLQTWLGAPCIFVYDCNSAENILINFQKFVQKRIKDDEEGNHDVAAPSPTSAYQDCFQLASCTSDELLLMSPELPADLFSCCLTCPIEISIRIFLMQSPLKDSKYKIFFENSTSNQPFGDSKNSFKSKIPNVNIPGMLSDRRTPLGELNWIFTAITDTIAWTSLPRPLFKKLFRHDLMIAALFRNFLLAKRIMPWYNCHPVSDPELPDSITTHPMWKSWDLAMDEVLTKIVIDLKNAPPATALESQMILQQQETLQNGGSSKSNAQDTKAGSIQTQSRFAVANLSTMSLVNNPALQSRKSISLQSSQQQLQQQQQQQQQFTGFFEQNLTAFELWLKYASNVRHPPEQLPIVLQVLLSQVHRIRALVLLSRFLDLGPWAVYLSLSIGIFPYVLKLLQSPAPELKPILVFIWARIMSIDYKNTQSELIKEKGYMYFVTVLVPDWGVNGMSATNGSAMINSGNPLTMTASQNINGPSSRYYERQQGNRTSNLGHNNLPFYHSNDTTDEQKAMAVFVLASFVRNFPLGQKNCFSLELVNKLCFYIDNSEIPLLRQWCVILLGLLFADNPLNRFVCMNTGAVEILLKSLKDPVPEVRTASIFALKHFISGFQDAEVILRLQQEFEEQYQQLHSQLQHLQNQSHLQQQQSQQQQQHLEQQQMKIEKQIRHCQVMQNQLEVIDLRKLKRQEIGNLISILPLINDGSSLVRKELVVYFSHIVSRYSNFFIVVVFNDLLEEIKLLEKSDINTRNTSDKYSVSQGSIFYTVWKSLLILAEDPFLENKELSKQVIDYILLELSAHKELGGPFAVMEKFLLKRSSKAHQTGKFGFNSSQVQFVKSSLRSFSPNERVDNNAFKKEQQQHDPKISHPMRTSLAKLFQSLGFSESNSDSDTQSSNTSMKSHTSKKGPSGLYLLNGNNNIYPTAETPRFRKHTEPLQLPLNSSFLDYSREYFQEPQMKKQEADEPGSVEYNARLWRRNRNETIIQETQGEKKLSIYGNWSKKLISLNNKSQPKLMKFAQFEDQLITADDRSTITVFDWEKGKTLSKFSNGTPFGTKVTDLKLINEDDSALLLTGSSDGVIKIYRDYQDVDTFKIVSAWRGLTDMLLTPRSTGLLTEWLQIRGSLLTTGDVKVIRVWDAHTETVEVDIPAKTSSLITSLTADQLAGNIFVAGFADGSLRVYDRRLDPRDSMIRRWRAGNDKQGVWINNVHLQRGGYRELVSGATNGVVELWDIRSEDPVESFVDQNVTSQYGSQQKPTTMTCMQVHEHAPIIATGTKQIKIWTTSGDLLNSFKNSHNNGVTSTLAATGIPKSLSYSSTSDAFLSSMAFHPHRMMIAATNSHDSIVNIYKCEDERIDYF
For the molecule B1, the binding result with Tor1 and in the data set “cryo-EM structure” was “binds” in each case.
